Assays:
Assay in all cases: pulldown
[1] = biological target: T1, PK21303.1 (Cannabis sativa) (UniProt A0A803NH45); settings: 20 nM protein, 1.5 uM RNA pool; 20 mM HEPES pH 7.8, 70 mM KCl, 10 mM NaCl, 10% glycerol, 2 mM DTT, 0.1 ug/uL BSA; 30 min, 4 C
T1 sequence: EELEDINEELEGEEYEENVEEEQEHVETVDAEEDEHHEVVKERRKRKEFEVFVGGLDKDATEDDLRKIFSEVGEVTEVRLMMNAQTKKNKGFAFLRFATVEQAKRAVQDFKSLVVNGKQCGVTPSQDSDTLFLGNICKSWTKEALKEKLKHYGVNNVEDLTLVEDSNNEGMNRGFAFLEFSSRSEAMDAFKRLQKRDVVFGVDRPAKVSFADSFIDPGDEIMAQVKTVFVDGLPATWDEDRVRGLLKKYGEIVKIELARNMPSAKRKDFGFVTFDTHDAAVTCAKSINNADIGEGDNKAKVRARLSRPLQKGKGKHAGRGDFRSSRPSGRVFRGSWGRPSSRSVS

[2] = biological target: T2, CBG00421 (Caenorhabditis briggsae) (UniProt A8WN19); settings: 20 nM protein, 1.5 uM RNA pool; 20 mM HEPES pH 7.8, 70 mM KCl, 10 mM NaCl, 10% glycerol, 2 mM DTT, 0.1 ug/uL BSA; 30 min, 4 C
T2 sequence: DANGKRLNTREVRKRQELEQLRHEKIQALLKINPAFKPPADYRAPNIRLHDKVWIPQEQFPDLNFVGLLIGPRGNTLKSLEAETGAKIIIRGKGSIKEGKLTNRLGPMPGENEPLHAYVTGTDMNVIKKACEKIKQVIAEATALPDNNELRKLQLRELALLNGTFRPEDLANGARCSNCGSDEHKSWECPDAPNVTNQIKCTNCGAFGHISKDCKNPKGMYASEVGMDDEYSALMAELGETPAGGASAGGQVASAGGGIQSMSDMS

[3] = biological target: T3, Tb927.7.2140 V21F (Trypanosoma brucei) (UniProt D6XKD1); settings: 20 nM protein, 1.5 uM RNA pool; 20 mM HEPES pH 7.8, 70 mM KCl, 10 mM NaCl, 10% glycerol, 2 mM DTT, 0.1 ug/uL BSA; 30 min, 4 C
T3 sequence: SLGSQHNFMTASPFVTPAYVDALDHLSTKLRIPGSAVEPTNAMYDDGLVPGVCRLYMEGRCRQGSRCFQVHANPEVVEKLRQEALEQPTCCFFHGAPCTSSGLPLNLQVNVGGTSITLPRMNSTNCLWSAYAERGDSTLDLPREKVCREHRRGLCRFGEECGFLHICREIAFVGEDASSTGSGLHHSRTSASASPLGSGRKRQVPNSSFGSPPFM

[4] = biological target: T4, NCU04254 (Neurospora crassa) (UniProt Q7S7T0); settings: 20 nM protein, 1.5 uM RNA pool; 20 mM HEPES pH 7.8, 70 mM KCl, 10 mM NaCl, 10% glycerol, 2 mM DTT, 0.1 ug/uL BSA; 30 min, 4 C
T4 sequence: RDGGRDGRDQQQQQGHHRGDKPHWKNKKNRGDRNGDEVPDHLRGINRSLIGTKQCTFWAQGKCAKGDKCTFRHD

[5] = biological target: T5, Tb927.6.4960 Q72H;T102A;A103T (Trypanosoma brucei) (UniProt Q586G8); settings: 20 nM protein, 1.5 uM RNA pool; 20 mM HEPES pH 7.8, 70 mM KCl, 10 mM NaCl, 10% glycerol, 2 mM DTT, 0.1 ug/uL BSA; 30 min, 4 C
T5 sequence: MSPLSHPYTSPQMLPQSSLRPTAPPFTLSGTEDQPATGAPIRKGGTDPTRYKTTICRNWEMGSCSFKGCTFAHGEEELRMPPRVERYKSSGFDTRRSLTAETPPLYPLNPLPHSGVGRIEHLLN

[6] = biological target: khdrbs1b (Tetraodon nigroviridis) (UniProt H3D6B2); settings: 20 nM protein, 1.5 uM RNA pool; 20 mM HEPES pH 7.8, 70 mM KCl, 10 mM NaCl, 10% glycerol, 2 mM DTT, 0.1 ug/uL BSA; 30 min, 4 C
[7] = biological target: T6, tia1 (Tetraodon nigroviridis) (UniProt H3D7H4); settings: 20 nM protein, 1.5 uM RNA pool; 20 mM HEPES pH 7.8, 70 mM KCl, 10 mM NaCl, 10% glycerol, 2 mM DTT, 0.1 ug/uL BSA; 30 min, 4 C
T6 sequence: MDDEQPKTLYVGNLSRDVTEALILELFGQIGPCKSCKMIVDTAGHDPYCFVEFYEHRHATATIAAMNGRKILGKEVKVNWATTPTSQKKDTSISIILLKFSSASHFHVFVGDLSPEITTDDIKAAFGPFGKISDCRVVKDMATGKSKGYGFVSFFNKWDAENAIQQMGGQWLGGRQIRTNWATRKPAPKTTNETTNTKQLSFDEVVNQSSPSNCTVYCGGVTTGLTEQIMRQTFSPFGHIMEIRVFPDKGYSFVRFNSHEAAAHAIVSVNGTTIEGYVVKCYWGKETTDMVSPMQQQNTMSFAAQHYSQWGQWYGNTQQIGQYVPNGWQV

[8] = biological target: T7, mex-5 (Caenorhabditis elegans) (UniProt Q9XUB2); settings: 20 nM protein, 1.5 uM RNA pool; 20 mM HEPES pH 7.8, 70 mM KCl, 10 mM NaCl, 10% glycerol, 2 mM DTT, 0.1 ug/uL BSA; 30 min, 4 C (protocol of this paper; not …); cited from earlier work
T7 sequence: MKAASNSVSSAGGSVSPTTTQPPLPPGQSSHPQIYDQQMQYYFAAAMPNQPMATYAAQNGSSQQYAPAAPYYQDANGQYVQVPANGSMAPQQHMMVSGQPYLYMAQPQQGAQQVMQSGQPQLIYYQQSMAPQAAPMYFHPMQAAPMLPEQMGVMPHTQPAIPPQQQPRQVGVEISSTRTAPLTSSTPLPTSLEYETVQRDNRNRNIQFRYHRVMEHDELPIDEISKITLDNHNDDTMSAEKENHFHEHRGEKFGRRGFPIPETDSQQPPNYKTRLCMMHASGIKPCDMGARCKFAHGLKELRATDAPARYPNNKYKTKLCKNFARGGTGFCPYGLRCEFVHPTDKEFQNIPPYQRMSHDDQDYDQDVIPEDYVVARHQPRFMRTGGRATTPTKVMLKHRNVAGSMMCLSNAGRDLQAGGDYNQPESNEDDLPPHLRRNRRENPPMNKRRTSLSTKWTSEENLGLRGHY

[9] = biological target: T8, SCHCODRAFT_104251 ins42_DR;V186I (Schizophyllum commune) (UniProt A0ACF2EEN8); settings: 20 nM protein, 1.5 uM RNA pool; 20 mM HEPES pH 7.8, 70 mM KCl, 10 mM NaCl, 10% glycerol, 2 mM DTT, 0.1 ug/uL BSA; 30 min, 4 C
T8 sequence: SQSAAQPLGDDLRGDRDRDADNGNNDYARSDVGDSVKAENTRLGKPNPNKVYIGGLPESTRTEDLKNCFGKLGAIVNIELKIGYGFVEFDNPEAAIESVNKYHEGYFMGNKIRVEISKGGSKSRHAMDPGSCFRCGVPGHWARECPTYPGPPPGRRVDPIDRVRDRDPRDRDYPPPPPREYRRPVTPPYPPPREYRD

[10] = biological target: T9, NAB2 (Saccharomyces cerevisiae) (UniProt P32505); settings: 20 nM protein, 1.5 uM RNA pool; 20 mM HEPES pH 7.8, 70 mM KCl, 10 mM NaCl, 10% glycerol, 2 mM DTT, 0.1 ug/uL BSA; 30 min, 4 C (protocol of this paper; not …); cited from earlier work
T9 sequence: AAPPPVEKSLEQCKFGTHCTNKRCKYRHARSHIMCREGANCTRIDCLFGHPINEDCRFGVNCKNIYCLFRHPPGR

[11] = biological target: hnrpkl (Tetraodon nigroviridis) (UniProt H3CQ29); settings: 20 nM protein, 1.5 uM RNA pool; 20 mM HEPES pH 7.8, 70 mM KCl, 10 mM NaCl, 10% glycerol, 2 mM DTT, 0.1 ug/uL BSA; 30 min, 4 C
[12] = biological target: T10, TIA1 (Tetraodon nigroviridis) (UniProt H3D1J1); settings: 20 nM protein, 1.5 uM RNA pool; 20 mM HEPES pH 7.8, 70 mM KCl, 10 mM NaCl, 10% glycerol, 2 mM DTT, 0.1 ug/uL BSA; 30 min, 4 C
T10 sequence: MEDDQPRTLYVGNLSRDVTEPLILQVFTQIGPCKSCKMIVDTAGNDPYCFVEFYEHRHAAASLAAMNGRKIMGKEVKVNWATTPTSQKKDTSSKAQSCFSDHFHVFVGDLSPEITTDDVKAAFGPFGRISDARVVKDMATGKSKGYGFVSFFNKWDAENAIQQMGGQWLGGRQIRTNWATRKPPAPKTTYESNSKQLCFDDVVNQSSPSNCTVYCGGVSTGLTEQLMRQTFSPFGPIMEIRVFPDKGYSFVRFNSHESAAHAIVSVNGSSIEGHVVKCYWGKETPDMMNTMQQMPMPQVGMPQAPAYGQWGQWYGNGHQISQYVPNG

Chain of khdrbs1b (Tetraodon nigroviridis) (H3D6B2 entry or part of it): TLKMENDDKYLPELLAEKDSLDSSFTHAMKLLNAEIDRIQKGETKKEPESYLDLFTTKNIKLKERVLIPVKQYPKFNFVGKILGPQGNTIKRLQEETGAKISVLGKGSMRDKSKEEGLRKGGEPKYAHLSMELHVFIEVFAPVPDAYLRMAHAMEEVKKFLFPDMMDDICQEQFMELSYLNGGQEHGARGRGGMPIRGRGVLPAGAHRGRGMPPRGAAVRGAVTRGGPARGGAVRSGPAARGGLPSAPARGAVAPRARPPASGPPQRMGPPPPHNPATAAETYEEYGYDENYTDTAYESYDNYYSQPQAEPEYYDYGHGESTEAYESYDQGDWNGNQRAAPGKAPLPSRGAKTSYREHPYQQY
Chain of hnrpkl (Tetraodon nigroviridis) (H3CQ29 entry or part of it): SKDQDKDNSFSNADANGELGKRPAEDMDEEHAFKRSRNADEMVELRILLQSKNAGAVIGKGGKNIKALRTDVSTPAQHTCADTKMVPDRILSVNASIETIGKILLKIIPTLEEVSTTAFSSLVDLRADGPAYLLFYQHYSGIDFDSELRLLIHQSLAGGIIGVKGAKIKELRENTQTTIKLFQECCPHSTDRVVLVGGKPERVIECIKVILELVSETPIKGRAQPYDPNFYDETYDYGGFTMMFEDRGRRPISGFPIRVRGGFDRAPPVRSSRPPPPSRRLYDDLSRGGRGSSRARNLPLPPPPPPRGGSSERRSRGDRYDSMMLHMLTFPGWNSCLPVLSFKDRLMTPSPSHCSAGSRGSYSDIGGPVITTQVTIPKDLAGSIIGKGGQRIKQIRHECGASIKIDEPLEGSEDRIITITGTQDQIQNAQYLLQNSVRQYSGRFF

For AGAAGGA [RNAcompete motif RNCMPT00831], the binding signal (z-score (mean of top ten 7-mers)) [1] was 6.57.
For GANUAAU [RNAcompete motif RNCMPT00840], the binding signal (z-score (mean of top ten 7-mers)) [2] was 14.5.
AAAACG [RNAcompete motif RNCMPT00834] gave a binding signal (z-score (mean of top ten 7-mers)) [3] of 26.
Substance GAAUGG [RNAcompete motif RNCMPT00835] has a binding signal (z-score (mean of top ten 7-mers)) [4] of 8.35.
Substance UAAUAA [RNAcompete motif RNCMPT00833] has a binding signal (z-score (mean of top ten 7-mers)) [5] of 13.9.
AUAAAAG [RNAcompete motif RNCMPT01673] gave a binding signal (z-score (mean of top ten 7-mers)) [6] of 8.63.
In the case of UUUUUUG [RNAcompete motif RNCMPT01674], the binding signal (z-score (mean of top ten 7-mers)) [7] is reported as 6.08.
For UAAUA [RNAcompete motif RNCMPT00039], the binding signal (z-score (mean of top ten 7-mers)) [8] is given as 18.
Substance GACUA [RNAcompete motif RNCMPT00866] has a binding signal (z-score (mean of top ten 7-mers)) [9] of 6.58.
For CCUCU [RNAcompete motif RNCMPT00042], the binding signal (z-score (mean of top ten 7-mers)) [10] is listed as 6.1.
In the case of AAACCCAA [RNAcompete motif RNCMPT01679], the binding signal (z-score (mean of top ten 7-mers)) [11] is reported as 6.12.
Substance UUUUUU [RNAcompete motif RNCMPT01672] has a binding signal (z-score (mean of top ten 7-mers)) [12] of 8.74.

From publication PMC12990809
